Test results from PMC4139157.

Target: human plasma fibrinogen (human) (UniProt P02671)
Assay: ELISA

Sequence of UniProt P02671 (P02671 36-866, chain 1 of 3): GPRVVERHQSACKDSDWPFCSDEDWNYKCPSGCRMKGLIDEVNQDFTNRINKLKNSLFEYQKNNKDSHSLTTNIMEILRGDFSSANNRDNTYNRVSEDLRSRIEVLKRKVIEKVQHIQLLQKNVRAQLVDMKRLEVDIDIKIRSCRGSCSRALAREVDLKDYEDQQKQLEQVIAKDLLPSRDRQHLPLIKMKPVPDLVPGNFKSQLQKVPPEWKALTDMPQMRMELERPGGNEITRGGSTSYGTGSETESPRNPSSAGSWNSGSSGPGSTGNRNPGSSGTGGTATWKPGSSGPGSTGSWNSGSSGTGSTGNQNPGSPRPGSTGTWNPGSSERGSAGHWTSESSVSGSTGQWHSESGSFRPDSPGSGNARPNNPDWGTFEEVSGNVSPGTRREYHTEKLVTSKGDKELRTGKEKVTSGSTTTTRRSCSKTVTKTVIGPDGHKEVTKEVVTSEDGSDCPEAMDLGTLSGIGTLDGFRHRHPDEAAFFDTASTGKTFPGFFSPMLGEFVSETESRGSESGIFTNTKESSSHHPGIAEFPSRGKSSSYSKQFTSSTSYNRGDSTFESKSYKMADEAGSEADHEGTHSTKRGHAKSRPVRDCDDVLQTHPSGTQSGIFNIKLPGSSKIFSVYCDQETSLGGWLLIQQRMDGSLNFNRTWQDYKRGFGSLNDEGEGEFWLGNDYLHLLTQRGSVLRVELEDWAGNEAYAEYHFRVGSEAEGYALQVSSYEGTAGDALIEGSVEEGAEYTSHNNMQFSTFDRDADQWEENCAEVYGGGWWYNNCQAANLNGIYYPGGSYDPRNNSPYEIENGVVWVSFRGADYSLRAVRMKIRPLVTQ
Sequence of UniProt P02671 (P02675 45-491, chain 2 of 3, further chain): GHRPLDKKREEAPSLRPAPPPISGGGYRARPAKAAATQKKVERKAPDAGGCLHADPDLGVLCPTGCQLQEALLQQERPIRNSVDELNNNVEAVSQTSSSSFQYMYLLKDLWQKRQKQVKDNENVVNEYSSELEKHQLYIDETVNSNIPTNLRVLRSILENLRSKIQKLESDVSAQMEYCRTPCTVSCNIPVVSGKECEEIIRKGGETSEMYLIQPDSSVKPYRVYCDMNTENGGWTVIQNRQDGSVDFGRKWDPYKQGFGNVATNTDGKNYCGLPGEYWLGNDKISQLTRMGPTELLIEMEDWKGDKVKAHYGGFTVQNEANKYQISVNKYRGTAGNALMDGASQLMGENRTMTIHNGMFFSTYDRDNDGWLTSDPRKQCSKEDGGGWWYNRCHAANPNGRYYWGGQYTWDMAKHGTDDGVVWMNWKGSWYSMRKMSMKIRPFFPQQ
Sequence of UniProt P02671 (P02679 27-453, chain 3 of 3, further chain): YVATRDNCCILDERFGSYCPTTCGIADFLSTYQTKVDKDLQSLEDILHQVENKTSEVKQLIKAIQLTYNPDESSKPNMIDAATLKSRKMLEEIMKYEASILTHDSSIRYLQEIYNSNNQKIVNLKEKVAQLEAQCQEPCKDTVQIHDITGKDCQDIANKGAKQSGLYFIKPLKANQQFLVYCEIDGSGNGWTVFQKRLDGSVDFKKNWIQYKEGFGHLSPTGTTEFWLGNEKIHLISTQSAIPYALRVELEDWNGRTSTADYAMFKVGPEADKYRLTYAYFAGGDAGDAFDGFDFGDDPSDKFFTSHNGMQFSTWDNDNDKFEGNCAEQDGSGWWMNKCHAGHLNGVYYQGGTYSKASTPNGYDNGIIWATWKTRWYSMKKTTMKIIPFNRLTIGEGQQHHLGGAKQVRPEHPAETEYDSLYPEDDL

| Substance | Kd [µM] |
| --- | --- |
| Histidine-tagged LigB-12 (amino acids 1029–1123 of LigB) (domain or fragment) | 125 |
| Histidine-tagged LigBCen2R (amino acids 1014–1123 of LigB) (domain or fragment) | 117 |
